Test results as given in publication PMC1669778.

Legend:
[1] = target: C-terminal fragment of human topoisomerase I (HTOP14) (human) (UniProt P11387); experiment: pull-down
[2] = target: C-terminal fragment of human topoisomerase I (HTOP14) (human) (UniProt P11387); experiment: fluorescence polarisation
[3] = target: small subunit of L.donovani topoisomerase I (LdTOP1S) (Leishmania donovani); experiment: fluorescence polarisation
LdTOP1L-fus-HTOP14 = LdTOP1L-fus-HTOP14 (Leishmania donovani / human chimera, UniProt A0A3Q8IHS4 1-635+=EF+P11387:636-765, internal_change); experiment: SDS trapping of covalent complex

Molecule: large subunit of L.donovani topoisomerase I (LdTOP1L) (natural protein)
- stoichiometry N [1]: 1
- Kd [2]: 162 nM
- Kd [3]: 59.8 nM

B1: 25mer duplex ML25/MC25 (dsDNA)
DNA 1: GAAAAAAGACTTAGAAAAATTTTTA
DNA 2: TAAAAATTTTTCTAAGTCTTTTTTC
- binding signal (LdTOP1L-fus-HTOP14): ~2 fold more covalent complex than LdTOP1L/S
